Source: paper PMC10881165

Target: α-synuclein 1-140 (UniProt P37840)
Assay: membrane pelleting, Western blot of dimers/trimers
Conditions: reference: WT (unphosphorylated) α-synuclein; sites S129

In the case of “α-synuclein 1-140 (from UniProt P37840) pS129 α-synuclein”, the “other: oligomer/monomer ratio” value is reported as “stronger; reference 0.22 ± 0.07”.
